Assay results as given in patent US20030134774A1, “Methods for inhibiting cardiac disorders” (priority 2001, published 2003).

How the values were obtained:
ERK1/2 = experiment: Phospho-ERK1/2 Western blot in cardiomyocytes; type: cell-based, rat
Description: rPMT promotes the activation of ERK1/2, JNK and p38-MAPK cascades. Incubations were for 24 hr in the presence of the indicated concentrations of rPMT. PMA (100 nM, 5 min) and sorbitol ([…], 5 min) were included as positive controls. Cell lysates were subjected to SDS-PAGE followed by Western blotting as described in Methods below. Phosphorylated forms of ERK1/2 (A), p38 MAP kinase (B) or JNK (C) were detected by specific anti-phospho-ERK1/2, -p38 MAP kinase or -JNK antibodies, respectively. Blots were stripped and subjected to immunoblot analysis with total ERK1/2 or p38 MAP kinase to normalize for minor variations in protein loading (Panels A and B). Top: representative autoradiograms (with each lane from a single gel exposed for the same duration). Bottom: quantification of each series of experiments (n=3).
rPMT transactivation of the EGF receptor in cardiac fibroblasts, but not cardiomyocytes. Neonatal rat cardiomyocytes (Panel A) and cardiac fibroblasts (Panel B) were treated with rPMT (400 ng/ml) for 24 hr or EGF (50 ng/ml) for 5 min without or with AG1478 (2 μM, starting 30 min prior to stimulation). Cell lysates were subjected to SDS-PAGE followed by Western blotting with the anti-phospho-ERK1/2 antibody. Data are from a representative gel, with similar results obtained in 3 separate experiments.
(§1) Specific immunoreactivity for individual PKC isoforms was quantified according to methods described previously. For assays of MAPKs and AKT, cells were exposed to test agents as indicated in individual experimental protocols, washed three times with ice-cold calcium/magnesium-free Dulbecco's PBS (pH 7.1), scraped into ice-cold extraction buffer [20 mM β-glycerophosphate pH 7.5, 20 mM sodium fluoride, 2 mM EDTA, 0.2 mM sodium vanadate, 10 μg/ml aprotinin, 25 μg/ml leupeptin, 50 μg/ml PMSF, and 0.3% (v/v) β-mercaptoethanol], lysed by sonication, and centrifuged at 10,000 g for 10 min at 4° C. The supernatant was diluted in SDS-PAGE sample buffer, boiled for 5 min, and stored at −70° C. Western blot analysis was performed with antibodies that are selective for the phosphorylated (activated) forms of ERK1/2, p38-MAPK, JNK, AKT, and pan-PKC according to manufacturer's instructions. For each panel in each Figure, the results are from a single gel exposed for a uniform duration. Bands were detected by enhanced chemiluminescence and blots were quantified by laser scanning densitometry.

PKC-ε = target: T1, PKC-ε (Rattus norvegicus, UniProt P09216); experiment: Western blot with anti-phospho-PKC antibody in cardiomyocytes; type: cell-based; conditions: 400 ng/ml, 24 hr
T1 construct: endogenous in cells; host or cells: cultured neonatal rat ventricular cardiomyocytes
T1 sequence (P09216 1-737): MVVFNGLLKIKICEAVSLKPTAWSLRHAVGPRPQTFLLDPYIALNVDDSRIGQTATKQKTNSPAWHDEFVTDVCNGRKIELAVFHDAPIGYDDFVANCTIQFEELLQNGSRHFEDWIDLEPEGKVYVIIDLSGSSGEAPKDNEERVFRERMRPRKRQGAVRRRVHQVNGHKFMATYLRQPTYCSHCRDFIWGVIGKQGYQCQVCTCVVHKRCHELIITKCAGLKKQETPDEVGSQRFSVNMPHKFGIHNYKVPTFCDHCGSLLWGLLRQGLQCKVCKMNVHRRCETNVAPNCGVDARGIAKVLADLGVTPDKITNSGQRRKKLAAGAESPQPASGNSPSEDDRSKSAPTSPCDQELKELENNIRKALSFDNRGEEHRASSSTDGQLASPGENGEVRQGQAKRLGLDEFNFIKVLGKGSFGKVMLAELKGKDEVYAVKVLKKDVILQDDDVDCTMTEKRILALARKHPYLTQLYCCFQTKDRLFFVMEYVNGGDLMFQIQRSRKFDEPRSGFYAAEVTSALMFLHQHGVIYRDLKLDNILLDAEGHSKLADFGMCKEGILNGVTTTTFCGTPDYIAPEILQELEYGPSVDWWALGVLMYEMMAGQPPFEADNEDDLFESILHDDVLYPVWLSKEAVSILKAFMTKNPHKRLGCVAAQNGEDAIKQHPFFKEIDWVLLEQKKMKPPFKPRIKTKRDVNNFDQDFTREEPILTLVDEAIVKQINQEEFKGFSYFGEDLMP
Description: rPMT selectively activates nPKC isoforms. Cardiomyocyte cultures were incubated in culture medium without or with NE (10 μM), rPMT (400 ng/ml) or PMA (100 nM) for 24 hr (Panels A and C) or 5 min (Panel B). Soluble extracts were prepared and separated by SDS-PAGE followed by immunodetection of total PKC isoform abundance with antibodies that are specific for the individual PKC isoforms (Panel A), or phosphorylated forms of PKC (largely PKCε) with a pan-phospho-PKC antibody (Panels B and C), as described in Methods below. GF109203 was included at 5 μM 30 min prior to stimulation as indicated.
as §1, with “Western blot analysis was performed with antibodies that are selective for the phosphorylated (activated) forms of ERK1/2, p38-MAPK, JNK, AKT, and pan-PKC according to manufacturer's instructions. For each panel in each Figure, the results are from a single gel exposed for a uniform duration.” left out

cardiomyocytes = experiment: Cardiomyocyte growth: sarcomeric organization and cell size; type: cell-based, rat; conditions: rPMT 400 ng/ml or NE 10 μM, 48 hr, serum-free
Description: rPMT mimics the effect of norepinephrine to promote cardiomyocyte hypertrophy. Cardiomyocytes were cultured in serum-free medium without or with rPMT (400 ng/ml) or norepinephrine (NE, 10 μM) for 48 hr. Cardiomyocytes were fixed, permeabilized, and stained with monoclonal anti-α-actinin sarcomeric (Panel A, magnification×100) or subjected to Northern blot analysis for measurements of steady-state ANF mRNA expression (Panel B). Effects of rPMT (black bars) and NE (gray bars) vs. vehicle (white bars) on sarcomeric organization (Panel C), cell size (Panel D), and protein synthesis (Panel E) are illustrated (n=3 for each).
Cardiomyocyte growth was assessed by measuring cell surface area by digitized image analysis. For each experimental point, 7-10 frames/dish were recorded at 40× magnification with a video camera attached to a Nikon microscope which was calibrated with a micrometer.
Cardiomyocytes were grown on slides precoated with fibronectin. After treatment, cells were fixed with cold methanol and permeabilized with 0.1% Triton X-100 and 0.2% BSA. Cells were incubated with α-actinin monoclonal antibody overnight at 4° C. followed by anti-mouse IgG-Cy3-labeled antibody for 30 min at room temperature. Fluorescence microscopy images were obtained at 100× magnification.

B1: rPMT: recombinant Pasteurella multocida toxin, a Gαq agonist used as pharmacological probe (protein, UniProt P17452 1-1285, looked up)
Dermonecrotic toxin: MKTKHFFNSDFTVKGKSADEIFRRLCTDHPDKQLNNVKWKEVFINRFGQMMLDTPNPRKIVEKIINEGLEKQGLKNIDPETTYFNIFSSSDSSDGNVFHYNSLSESYRVTDACLMNIFVERYFDDWDLLNSLASNGIYSVGKEGAYYPDHDYGPEYNPVWGPNEQIYHSRVIADILYARSVWDEFKKYFMEYWQKYAQLYTEMLSDTFLAMAIQQYTRQTLTDEGFLMVCNTYYGNKEEVQITLLDIYGYPSTDIICIEQKGLPTPKVILYIPGGTQPFVEFLNTDDLKQWIAWHLKDNKHMVAFRKHFSLKQRQEGETFTGIDKALQYIAEESPEWPANKYILYNPTHLETENLFNIMMKRTEQRMLEDSDVQIRSNSEATRDYALSLLETFISQLSAIDMLVPAVGIPINFALSATALGLSSDIVVNGDSYEKRKYGIGSLVQSALFTGINLIPVISETAEILSSFSRTEEDIPAFFTEEQALAQRFEIVEEELHSISPDDPPREITDENLHKIRLVRLNNENQPLVVLRRLGGNKFIRIEPITFQEIKGSLVSEVINPVTNKTYYVSNAKLLGGSPYSPFRIGLEGVWTPEVLKARASVIGKPIGESYKRILAKLQRIHNSNILDERQGLMHELMELIDLYEESQPSSERLNAFRELRTQLEKALYLPEMEALKKQILQIPNKGSGAARFLLRTAMNEMAGKTSESTADLIRFALQDTVISAPFRGYAGAIPEAIDFPVKYVIEDISVFDKIQTNYWELPAYESWNEGSNSALLPGLLRESQSKGMLSKCRIIENSLYIGHSYEEMFYSISPYSNQVGGPYELYPFTFFSMLQEVQGDLGFEQAFATRNFFNTLVSDRLSLMENTMLLTESFDYTPWDAIYGDINYDEQFAAMSINERIEKCMNTYRGVAFQNSSKSIDFFLNNLTTFIDNGLTEIAISDLPYDIVQQEISQFLQGSNEWKTLDAMLFNLDKGDINGAFRKLLQSAKDNNIKFRAIGHSDNSVPPFNNPYKSLYYKGNIIAEAIEKLDREGQKFVVFADSSLLNSTPGTGRPMPGLVQYLKIPATVVDSDGAWQFLPDVASSRVPIEVTELENWQVLTPPQGKILGLKQFKLTAGFPTEQSRLPLLENSVSEDLREELMQKIDAIKNDVKMNSLVCMEAGSCDSVSPKVAARLKDMGLEAGMGASITWWRREGGMEFSHQMHTTASFKFAGKEFAVDASHLQFVHDQLDTTILILPVDDWALEIAQRNRAINPFVEYVSKTGNMLALFMPPLFTKPRLTRAL
expression of total ERK1/2 protein (ERK1/2): does not significantly alter
signaling through the ERK1/2 cascade (phosphorylation of terminal kinase) (ERK1/2; 24 hr, indicated concentrations): dose-dependent increases
magnitude of ERK1/2 activation (ERK1/2; comparable to acute stimulation with PMA): quite robust
time at which ERK1/2 activation is detectable (ERK1/2; increased progressively for 24 hr): 1 h
PKC-ε phosphorylation (PKC-ε): enhanced
cell size (cellular enlargement) (cardiomyocytes): induce marked cellular enlargement
myofibrillar (sarcomeric) organization (cardiomyocytes): promote myofibrillar organization
